Measurements taken from patent US20160046711A1 (Novartis, published 2016).
Where a chain is given by its changes, count along the chain named. Read-outs that look alike come from different tables or passages of the source. One block for each molecule: values may come before it.

Experiments:
[1] = molecular target: T1, human CDH6 expressed on cells (human, UniProt P55285 54-790); assay: FACS histogram on OVCAR3 cells
T1 sequence: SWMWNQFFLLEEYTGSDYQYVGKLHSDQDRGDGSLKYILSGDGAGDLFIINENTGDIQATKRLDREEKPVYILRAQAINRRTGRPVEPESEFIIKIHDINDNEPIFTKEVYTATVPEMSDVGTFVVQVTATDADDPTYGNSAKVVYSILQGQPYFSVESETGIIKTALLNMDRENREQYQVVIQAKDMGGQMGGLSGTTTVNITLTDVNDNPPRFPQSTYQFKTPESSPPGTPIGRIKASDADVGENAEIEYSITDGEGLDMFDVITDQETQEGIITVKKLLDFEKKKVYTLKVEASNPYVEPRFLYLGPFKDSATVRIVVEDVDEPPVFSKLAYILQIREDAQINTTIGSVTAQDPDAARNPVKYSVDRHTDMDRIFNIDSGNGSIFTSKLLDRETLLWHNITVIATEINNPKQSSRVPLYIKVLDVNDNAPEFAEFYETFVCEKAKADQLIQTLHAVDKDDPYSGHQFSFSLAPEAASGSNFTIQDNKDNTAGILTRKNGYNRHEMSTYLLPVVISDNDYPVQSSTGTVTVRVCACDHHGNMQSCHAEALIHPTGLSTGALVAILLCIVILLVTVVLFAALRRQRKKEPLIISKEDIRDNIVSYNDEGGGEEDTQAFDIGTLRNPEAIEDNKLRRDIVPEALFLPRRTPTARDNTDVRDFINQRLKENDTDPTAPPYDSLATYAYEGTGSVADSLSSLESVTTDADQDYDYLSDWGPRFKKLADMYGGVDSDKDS

[2] = molecular target: T1, human CDH6 expressed on cells; assay: FACS histogram on OVCAR8-CDH6+ cells
CDH6 wt [3] = molecular target: T2, CDH6 wt (human, UniProt P55285 54-615, limits assumed); assay: ELISA on coated CDH6-wt, O.D.
T2 sequence: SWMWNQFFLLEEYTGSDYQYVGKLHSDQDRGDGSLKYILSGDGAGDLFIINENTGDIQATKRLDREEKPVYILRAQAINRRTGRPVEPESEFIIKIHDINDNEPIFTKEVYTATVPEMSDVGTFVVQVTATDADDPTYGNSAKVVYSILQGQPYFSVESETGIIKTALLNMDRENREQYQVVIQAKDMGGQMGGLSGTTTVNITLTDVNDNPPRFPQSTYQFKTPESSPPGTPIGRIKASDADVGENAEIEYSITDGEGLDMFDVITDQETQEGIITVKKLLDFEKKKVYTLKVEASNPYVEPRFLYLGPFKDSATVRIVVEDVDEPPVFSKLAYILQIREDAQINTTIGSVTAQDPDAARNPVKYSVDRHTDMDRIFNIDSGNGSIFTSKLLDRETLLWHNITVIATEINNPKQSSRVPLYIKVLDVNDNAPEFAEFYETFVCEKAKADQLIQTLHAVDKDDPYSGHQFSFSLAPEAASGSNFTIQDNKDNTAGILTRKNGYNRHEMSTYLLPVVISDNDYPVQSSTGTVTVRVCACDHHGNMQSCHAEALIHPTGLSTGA

CDH6-N573A [4] = molecular target: T3, CDH6-N573A (human, UniProt P55285 54-615); assay: ELISA on coated CDH6-N573A, O.D.
T3 sequence: T2 sequence with N520A

CDH6 wt [5] = molecular target: T2, CDH6 wt; assay: ELISA on coated CDH6-wt, O.D.; remark: listed apart in the source
CDH6-Y575A [6] = molecular target: T4, CDH6-Y575A (human, UniProt P55285 54-615); assay: ELISA on coated CDH6-Y575A, O.D.
T4 sequence: T2 sequence with Y522A

CDH6-D574A [7] = molecular target: T5, CDH6-D574A (human, UniProt P55285 54-615); assay: ELISA on coated CDH6-D574A, O.D.
T5 sequence: T2 sequence with D521A

CDH6-N573A [8] = molecular target: T3, CDH6-N573A; assay: ELISA on coated CDH6-N573A, O.D.; remark: listed apart in the source
CDH6-D574A [9] = molecular target: T5, CDH6-D574A; assay: ELISA on coated CDH6-D574A, O.D.; remark: listed apart in the source
CDH6-N573A [10] = molecular target: T3, CDH6-N573A; assay: ELISA on coated CDH6-N573A, O.D.; remark: listed apart in the source
CDH6-Y575A [11] = molecular target: T4, CDH6-Y575A; assay: ELISA on coated CDH6-Y575A, O.D.; remark: listed apart in the source
CDH6 wt [12] = molecular target: T2, CDH6 wt; assay: ELISA on coated CDH6-wt, O.D.; remark: listed apart in the source

- Geom. Mean Fluorescence [1]: 60.4
- Geom. Mean Fluorescence [2]: 56.5
Molecule: non-binding control ADC (antibody)

- Geom. Mean Fluorescence [1]: 57.9
- Geom. Mean Fluorescence [2]: 54.2
- EC50 (CDH6 wt [3]): 300 nM
- EC50 (CDH6-N573A [4]): 545 nM
Molecule: human isotype control IgG (antibody)

- EC50 (CDH6 wt [5]): 200 nM
- EC50 (CDH6-Y575A [6]): 287 nM
- EC50 (CDH6-D574A [7]): 151 µM
- EC50 (CDH6-N573A [8]): 459 µM
B1: NOV0710 (antibody, human IgG1, kappa, V domains shown)
VH: QVQLLESGGGLVQPGGSLRLSCAASGFTFSSYAMSWVRQAPGKGLEWVSVIRSSGSSTYYADSVKGRFTISRDNSKNTLYLQMNSLRAEDTAVYYCARGGGYFDYWGQGTLVTVSS
VL: DIQMTQSPSSLSASVGDRVTITCRASQSISLWLNWYQQKPGKAPKLLIYAASTLQSGVPSRFSGSGSGTDFTLTISSLQPEDFATYYCQQYYTSPYTFGQGTKVEIKR

- EC50 (CDH6-D574A [9]): 7.58 µM
- EC50 (CDH6-N573A [10]): 6.74 µM
- EC50 (CDH6-Y575A [11]): 7.2 µM
- EC50 (CDH6 wt [12]): 7.11 µM
B2: NOV0720 (antibody, human IgG1, lambda, V domains shown)
VH: QVQLQQSGPGLVKPSQTLSLTCAISGDSVSSNSAGWNWIRQSPSRGLEWLGRIYYRSKWYNDYAVSVKSRITINPDTSKNQFSLQLNSVTPEDTAVYYCAREKYTVSFYDFFDYWGQGTLVTVSS
VL: DIELTQPPSVSVSPGQTASITCSGDNIGSMTAHWYQQKPGQAPVLVIYDKNERPSGIPERFSGSNSGNTATLTISGTQAEDEADYYCQSWDDSYNSVVFGGGTKLTVLG
